Measurements taken from paper PMC7689096, “Cyclizing Painkillers: Development of Backbone-Cyclic TAPS Analogs” (Frontiers in Chemistry, 2020).
Numbered stars: 1 amine (or outer) side, 2 acyl side, 3 side chain; on linkers, the order of the positions; unused ones are H or OH. Bridge positions count the residues as written; N and C are the ends. Square brackets hold non-standard residues; d marks the D form. Ends that are not written are not given here. Peptide text beside a SMILES is read from it. N(6-aminohexyl)Gly = O=C(CN(CCCCCCN[*:3])[*:1])[*:2]; NGly(3-aminopropyl) = O=C(CN(CCCN[*:3])[*:1])[*:2]; CO = O=C([*:1])[*:2]; Sar = CNCC(=O)O

What was measured:
[1] = target: T1, δ (DOP, OPRD2) opioid receptor (Mus musculus, UniProt P32300); assay: DOP opioid receptor functional agonism in NG-10815 cells; type: cell-based, rat; conditions: At 10^−6 M, percent of control specific agonist response
T1 construct: NG-10815 cells which express significant endogenous levels of δ opioid receptors; host or cells: NG-10815 (NG108-15) mouse N18TG2 neuroblastoma x rat C6-BU-1 glioma hybrid cells
T1 sequence (P32300 whole entry): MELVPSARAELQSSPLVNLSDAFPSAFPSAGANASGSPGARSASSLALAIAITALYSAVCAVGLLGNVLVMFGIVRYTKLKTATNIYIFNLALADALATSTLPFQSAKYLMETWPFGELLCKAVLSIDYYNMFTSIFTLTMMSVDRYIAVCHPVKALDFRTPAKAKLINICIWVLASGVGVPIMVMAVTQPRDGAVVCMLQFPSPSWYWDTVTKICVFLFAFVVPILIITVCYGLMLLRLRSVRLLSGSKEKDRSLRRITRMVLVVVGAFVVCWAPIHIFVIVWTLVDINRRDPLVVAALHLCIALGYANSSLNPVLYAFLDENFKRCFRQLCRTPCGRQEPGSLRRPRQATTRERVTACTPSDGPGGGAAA
Procedure: (§1) Peptides were tested for μ (MOP, OPRM1) and δ (DOP, OPRD2) opioid receptor activation functional agonism and antagonism using CHO cells expressing human recombinant μ receptors and NG-10815 cells which express significant endogenous levels of δ opioid receptors. The cultures were incubated for 10 min at 37°C followed by impedance measurements of CHO cells and cAMP was assayed by the HTRF method using NG-10815 cells, according to CEREP standard assay protocols. The respective reference, non-peptide small molecules were tested concurrently with the TAPS analogs. The agonist compounds were: DPDPE (selective agonist of DOP receptor) and DAMGO (high MOP receptor specificity) and the antagonist compounds were: Naltrindole (selective DOP receptor antagonist) and CTOP (MOP receptor antagonist). […] The results are expressed as a percentage of respective control-specific response. […] These findings indicate that TAPS cyclic peptides are MOP selective full agonists. […] The cyclic TAPS peptide had lower activity than the linear parent TAPS peptide (90 ± 5%) – a finding that can be attributed to their restricted conformation relative to the flexible linear peptide conformation.
Evaluation of the Agonist Activity of Compounds at the Rat delta2 Receptor Endogenously Expressed in NG-10815 Cells, Determined by Measuring Their Effects on Impedance Modulation Using the CellKey (CDS) Detection Method
Cells are seeded onto 96-well plate coated with fibronectin at 2 × 10^5 cells/well in HBSS buffer (Invitrogen) + 20 mM HEPES (Invitrogen) with 0.1% BSA and allowed to equilibrate for 60 min at 37°C before the start of the experiment. Plates are placed onto the system and measurements are made at a temperature of 37°C. […] Impedance measurements are monitored for 10 min after ligand addition. The standard reference agonist is DPDPE, which is tested in each experiment at several concentrations to generate a concentration-response curve from which its EC50 value is calculated.
The respective reference, non-peptide small molecules were tested concurrently with the TAPS analogs; Agonist compounds DPDPE ([D-Pen2,D-Pen5]enkephalin), selective agonist of DOP receptor at 2 × 10^−9 M and DAMGO ([D-Ala2, N-MePhe4, Gly-ol] enkephalin), high MOP specificity at 2.5 × 10^−9 M; Antagonist compounds: naltrindole 7-(cyclopropylmethyl)-6,7-dehydro-4,5α-epoxy-3,14-dihydroxy-6,7-2′,3′-indolomorphinan hydrochloride, selective DOP antagonist, 5 × 10^−10 M and CTOP (D-Phe-Cys-Tyr-D-Trp-Orn-Thr-Pen-Thr-NH2), MOP antagonist at 3.4 × 10^−7 M. Depending on the assay volume and solvent tolerance, the stock solutions were diluted to [100×], [333×] or [1,000×] in 100% DMEM solvent, then either added directly or further diluted to [10×] or [5×] in H2O or Hank's balanced salt solution (HBSS) before addition to the assay well (final solvent concentration kept constant). The cultures were incubated for 10 min at 37°C followed by impedance measurements using cellular dielectric spectroscopy of CHO cells and cAMP was assayed by homogeneous time resolved fluorescence (HTRF) method using NG-10815 cells, according to CEREP standard assay protocols (https://euroscreenfast.com/assays/opioid-orl1-camp-fast-0360c; https://euroscreenfast.com/assays/opioid-op1-delta-camp-fast-0379c). […]

[2] = target: T1, δ (DOP, OPRD2) opioid receptor; assay: DOP opioid receptor functional antagonism in NG-10815 cells; type: cell-based, rat; conditions: Between 10^−9-10^−6 M, percent inhibition of control specific agonist response
Procedure: as §1
(§2) The respective reference, non-peptide small molecules were tested concurrently with the TAPS analogs; Agonist compounds DPDPE ([D-Pen2,D-Pen5]enkephalin), selective agonist of DOP receptor at 2 × 10^−9 M and DAMGO ([D-Ala2, N-MePhe4, Gly-ol] enkephalin), high MOP specificity at 2.5 × 10^−9 M; Antagonist compounds: naltrindole 7-(cyclopropylmethyl)-6,7-dehydro-4,5α-epoxy-3,14-dihydroxy-6,7-2′,3′-indolomorphinan hydrochloride, selective DOP antagonist, 5 × 10^−10 M and CTOP (D-Phe-Cys-Tyr-D-Trp-Orn-Thr-Pen-Thr-NH2), MOP antagonist at 3.4 × 10^−7 M. Depending on the assay volume and solvent tolerance, the stock solutions were diluted to [100×], [333×] or [1,000×] in 100% DMEM solvent, then either added directly or further diluted to [10×] or [5×] in H2O or Hank's balanced salt solution (HBSS) before addition to the assay well (final solvent concentration kept constant). The cultures were incubated for 10 min at 37°C followed by impedance measurements using cellular dielectric spectroscopy of CHO cells and cAMP was assayed by homogeneous time resolved fluorescence (HTRF) method using NG-10815 cells, according to CEREP standard assay protocols (https://euroscreenfast.com/assays/opioid-orl1-camp-fast-0360c; https://euroscreenfast.com/assays/opioid-op1-delta-camp-fast-0379c). The results (mean of three experiments) are expressed as a percent of control specific agonist response [(measured TAPS specific response/control specific agonist response) × 100] and as a percent inhibition of control specific agonist response [100 – (measured TAPS specific response/control specific agonist response) × 100] obtained in the presence of the TAPS compounds. Results showing a stimulation or an inhibition lower than 25% were considered not significant and mostly attributable to variability of the signal around the control level. Results showing a stimulation or an inhibition higher than 50% were considered to represent significant effects of the TAPS compounds.

[3] = target: T2, human recombinant μ (MOP, OPRM1) receptor (Homo sapiens, UniProt P35372); assay: MOP opioid receptor functional agonism in CHO cells expressing human recombinant μ receptors; type: cell-based; conditions: At 10^−6 M, percent of control specific agonist response, values lower than 25% not significant
T2 construct: host or cells: CHO cells
T2 sequence (P35372 whole entry): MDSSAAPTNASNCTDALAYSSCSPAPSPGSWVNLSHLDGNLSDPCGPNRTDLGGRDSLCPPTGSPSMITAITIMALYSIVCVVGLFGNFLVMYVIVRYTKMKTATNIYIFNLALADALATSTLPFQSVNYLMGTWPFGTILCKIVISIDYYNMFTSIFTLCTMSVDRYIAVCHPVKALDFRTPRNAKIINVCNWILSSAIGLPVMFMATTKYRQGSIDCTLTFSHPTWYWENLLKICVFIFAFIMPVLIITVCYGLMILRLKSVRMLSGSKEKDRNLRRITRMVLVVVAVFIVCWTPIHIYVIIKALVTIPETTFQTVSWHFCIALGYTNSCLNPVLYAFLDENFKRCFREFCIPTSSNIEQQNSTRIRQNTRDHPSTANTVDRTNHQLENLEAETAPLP
Procedure: as §1
Evaluation of the Agonist Activity of Compounds at the Human μ Receptor in Transfected CHO Cells, Determined by Measuring Their Effects on cAMP modulation Using the HTRF Detection Method
Thereafter, the adenylyl cyclase activator NKH 477 is added at a final concentration of […]. Following 10 min incubation at 37°C, the cells are lysed and the fluorescence acceptor (D2-labeled cAMP) and fluorescence donor (anti-cAMP antibody labeled with europium cryptate) are added. After 60 min at room temperature, the fluorescence transfer is measured at lex = 337 nm and lem = 620 and 665 nm using a microplate reader (Rubystar, BMG). The cAMP concentration is determined by dividing the signal measured at 665 nm by that measured at 620 nm (ratio). The results are expressed as a percent of the control response to 1 μM DAMGO. The standard reference agonist is DAMGO, which is tested in each experiment at several concentrations to generate a concentration-response curve from which its EC50 value is calculated.
as §2, with “Results showing a stimulation or an inhibition lower than 25% were considered not significant and mostly attributable to variability of the signal around the control level. Results showing a stimulation or an inhibition higher than 50% were considered to represent significant effects of the TAPS compounds.” left out

[4] = target: T2, human recombinant μ (MOP, OPRM1) receptor; assay: MOP opioid receptor functional antagonism in CHO cells expressing human recombinant μ receptors; type: cell-based; conditions: Between 10^−9-10^−6 M, percent inhibition of control specific agonist response, values lower than 25% not significant
Procedure: as §1, §2

[5] = system: Brush Border Membrane Vesicle (BBMV) enzymes; assay: in vitro; type: in vitro ADME; conditions: rat BBMV
Procedure: A few of the peptides from the library were selected for further evaluation. The TAPS c(2-6) representative MOP agonists, TAPS c(6-2) and TAPS c(4-2) were not evaluated for opioid receptor interaction, and two non-active cyclic peptides, TAPS c(3-2) and TAPS c(6-6), having a smaller and larger ring sizes, respectively. The backbone-cyclic peptide stability in the GI tract was evaluated using rat origin pooled Brush Border Membrane Vesicle (BBMV) enzymes and were compared to the stability of linear TAPS (Figure 6).
1. Mass spectrometry analyses … 1
2. Metabolic Stability in BBMVs … 1
2.1 Preparation of BBMVs … 1
2.2 Experimental protocol for BBMVs … 2
3.1 In vitro cell based model: Caco-2 cell culture permeability studies … 2 3.1.1 Growth and Maintenance of the Cells: … 2
3.1.2 Preparation of the Cells for Transport Studies: … 2
3.2 Experimental Protocol … 2
3.3 Data Analysis of In Vitro Studies … 3
3.4 Statistical Analysis of the In Vitro Studies … 3
3.5 Statistical Analysis of Pharmacodynamic Studies … 3
3.6 Analytical Methods for Compound Concentration … 3
5. Supplementary Figures … 6
6. Supplementary Tables … 7
1. Mass spectrometry analyses
Mass spectra were acquired on a LCQ Fleet Ion Trap mass spectrometer (Thermo Scientific) utilizing electrospray ionization. For high resolution mass spectrometry (HRMS) analyses, the spectra were recorded on an Agilent 6550 iFunnel Q-TOF LC/MS system.
2. […]

mice = assay: Mouse open field test (locomotor adverse effect); conditions: 5 mg/kg IP
Procedure: In the mouse open field test (OF test), the distance and speed the animal moves over a 5-min time period is recorded, giving an indication as to whether a medication administered affected its locomotor activity. TAPS c(2-6) (5 or 15 mg/kg) was administered via IP administration and compared to morphine (5 mg/kg) and vehicle (PBS).
Male ICR mice (Harlan, Israel) 7 weeks of age (25–27) were used for all pharmacodynamic experiments after 5-day acclimation to laboratory conditions. Animals were allowed free access to food (standard commercial, sterile rodent diet) and water throughout the experiments and kept in automatically controlled environmental conditions for temperature and humidity levels in a 12-h dark-light cycle.
Animals were placed in the OF apparatus for a period of 5 min. The apparatus utilizes computerized monitoring which measures the speed and distance the animal walks during the measurement period. […] Baseline measurements were taken 1 day before initiation of the experiments and again at 0.5, 1.5, 3, and 5 h post injection.

[6] = Caco-2 permeability assay; conditions: human

Compound	DOP agonist (%) [1] [%]	DOP antagonist (%) [2] [%]	MOP agonist (%) [3] [%]	MOP antagonist (%) [4] [%]	also measured
TAPS c(3-3): backbone-cyclic TAPS analog, urea bridge; ring size 16 (YRF[NGly(3-aminopropyl)]-NH2; bridge 2-4 via CO; not fully specified (residue 2); also: urea bridge between the two N-alkyl chains)	14	11	1	2	–
CN(CC(=O)O)C(=O)[C@H](Cc1ccccc1)NC(=O)[C@@H](CCCN=C(N)N)NC(=O)[C@@H](N)Cc1ccc(O)cc1 [Linear, Tyr-D-Arg-Phe-Sar] (H-Y[dR]F[Sar]-OH)	–	–	–	–	metabolised at 0.5 h ([5]; male, Wistar, kidney or brush border membranes, pH 7.4, after treatment for 30 min, read-out: peptide degraded by intestinal enzymes): > 80%; peptide fate with intestinal enzymes ([5]; after 60 min): decomposed
CN1CC[C@]23c4c5ccc(O)c4O[C@H]2[C@@H](O)C=C[C@H]3[C@H]1C5 [morphine, reference compound]	–	–	–	–	locomotor effect (distance and speed of movement over 5 min) (mice): excitatory effect
COCCc1ccc(OCC(O)CNC(C)C)cc1 (stereo not drawn) [metoprolol, reference compound]	–	–	–	–	Papp at 150 min [6]: 13 ×10⁻⁶ cm/s
TAPS c(6-6): backbone-cyclic TAPS analog, urea bridge; ring size 22 (YRF[N(6-aminohexyl)Gly]-NH2; bridge 2-4 via CO; not fully specified (residue 2); also: urea bridge between the two N-alkyl chains)	1	6	21	3	–
